According to US20240270846A1 (published 2024):

B1: CE115HA000 Y100aA one-arm antibody (antibody, human IgG1, kappa, L234A L235A, N297A, name in Kabat numbering)
heavy: QVQLVESGGGVVQPGRSLRLSCAASGFTFSNAWMHWVRQAPGKGLEWVAQIKAKSNNYATYYAESVKGRFTISRDDSKNSLYLQMNSLKTEDTAVYYCRYVHYGAYAGVDAWGQGTTVTVSSASTKGPSVFPLAPSSKSTSGGTAALGCLVKDYFPEPVTVSWNSGALTSGVHTFPAVLQSSGLYSLSSVVTVPSSSLGTQTYICNVNHKPSNTKVDKKVEPKSCDKTHTCPPCPAPEAAGGPSVFLFPPKPKDTLMISRTPEVTCVVVDVSHEDPEVKFNWYVDGVEVHNAKTKPREEQYASTYRVVSVLTVLHQDWLNGKEYKCKVSNKALPAPIEKTISKAKGQPREPQVYTLPPSRCELTKNQVSLSCAVKGFYPSDIAVEWESNGQPENNYKTTPPVLDSDGSFFLVSKLTVDKSRWQQGNVFSCSVMHEALHNHYTQKSLSLSPDYKDDDDK
chain: EPKSSDKTHTCPPCPAPELLGGPSVFLFPPKPKDTLMISRTPEVTCVVVDVSHEDPEVKFNWYVDGVEVHNAKTKPREEQYNSTYRVVSVLTVLHQDWLNGKEYKCKVSNKALPAPIEKTISKAKGQPREPQVCTLPPSRDELTKNQVSLWCLVKGFYPSDIAVEWESNGQPENNYKTTPPVLDSDGSFFLYSKLTVDKSRWQQGNVFSCSVMHEALHNRYTQKSLSLSP
light: DIVMTQSPLSLPVTPGEPASISCRSSQSLVHSNRNTYLHWYQQKPGQAPRLLIYKVSNRFSGVPDRFSGSGSGTDFTLKISRVEAEDVGVYYCGQGTQVPYTFGQGTKLEIKRTVAAPSVFIFPPSDEQLKSGTASVVCLLNNFYPREAKVQWKVDNALQSGNSQESVTEQDSKDSTYSLSSTLTLSKADYEKHKVYACEVTHQGLSSPVTKSFNRGEC
notes: one-arm antibody
B2: CE115HA000 Y100aG one-arm antibody (antibody, human IgG1, kappa, L234A L235A, N297A, name in Kabat numbering)
heavy: QVQLVESGGGVVQPGRSLRLSCAASGFTFSNAWMHWVRQAPGKGLEWVAQIKAKSNNYATYYAESVKGRFTISRDDSKNSLYLQMNSLKTEDTAVYYCRYVHYGAYGGVDAWGQGTTVTVSSASTKGPSVFPLAPSSKSTSGGTAALGCLVKDYFPEPVTVSWNSGALTSGVHTFPAVLQSSGLYSLSSVVTVPSSSLGTQTYICNVNHKPSNTKVDKKVEPKSCDKTHTCPPCPAPEAAGGPSVFLFPPKPKDTLMISRTPEVTCVVVDVSHEDPEVKFNWYVDGVEVHNAKTKPREEQYASTYRVVSVLTVLHQDWLNGKEYKCKVSNKALPAPIEKTISKAKGQPREPQVYTLPPSRCELTKNQVSLSCAVKGFYPSDIAVEWESNGQPENNYKTTPPVLDSDGSFFLVSKLTVDKSRWQQGNVFSCSVMHEALHNHYTQKSLSLSPDYKDDDDK
chain: EPKSSDKTHTCPPCPAPELLGGPSVFLFPPKPKDTLMISRTPEVTCVVVDVSHEDPEVKFNWYVDGVEVHNAKTKPREEQYNSTYRVVSVLTVLHQDWLNGKEYKCKVSNKALPAPIEKTISKAKGQPREPQVCTLPPSRDELTKNQVSLWCLVKGFYPSDIAVEWESNGQPENNYKTTPPVLDSDGSFFLYSKLTVDKSRWQQGNVFSCSVMHEALHNRYTQKSLSLSP
light: DIVMTQSPLSLPVTPGEPASISCRSSQSLVHSNRNTYLHWYQQKPGQAPRLLIYKVSNRFSGVPDRFSGSGSGTDFTLKISRVEAEDVGVYYCGQGTQVPYTFGQGTKLEIKRTVAAPSVFIFPPSDEQLKSGTASVVCLLNNFYPREAKVQWKVDNALQSGNSQESVTEQDSKDSTYSLSSTLTLSKADYEKHKVYACEVTHQGLSSPVTKSFNRGEC
notes: one-arm antibody
B3: CE115HA000 Y100aL one-arm antibody (antibody, human IgG1, kappa, L234A L235A, N297A, name in Kabat numbering)
heavy: QVQLVESGGGVVQPGRSLRLSCAASGFTFSNAWMHWVRQAPGKGLEWVAQIKAKSNNYATYYAESVKGRFTISRDDSKNSLYLQMNSLKTEDTAVYYCRYVHYGAYLGVDAWGQGTTVTVSSASTKGPSVFPLAPSSKSTSGGTAALGCLVKDYFPEPVTVSWNSGALTSGVHTFPAVLQSSGLYSLSSVVTVPSSSLGTQTYICNVNHKPSNTKVDKKVEPKSCDKTHTCPPCPAPEAAGGPSVFLFPPKPKDTLMISRTPEVTCVVVDVSHEDPEVKFNWYVDGVEVHNAKTKPREEQYASTYRVVSVLTVLHQDWLNGKEYKCKVSNKALPAPIEKTISKAKGQPREPQVYTLPPSRCELTKNQVSLSCAVKGFYPSDIAVEWESNGQPENNYKTTPPVLDSDGSFFLVSKLTVDKSRWQQGNVFSCSVMHEALHNHYTQKSLSLSPDYKDDDDK
chain: EPKSSDKTHTCPPCPAPELLGGPSVFLFPPKPKDTLMISRTPEVTCVVVDVSHEDPEVKFNWYVDGVEVHNAKTKPREEQYNSTYRVVSVLTVLHQDWLNGKEYKCKVSNKALPAPIEKTISKAKGQPREPQVCTLPPSRDELTKNQVSLWCLVKGFYPSDIAVEWESNGQPENNYKTTPPVLDSDGSFFLYSKLTVDKSRWQQGNVFSCSVMHEALHNRYTQKSLSLSP
light: DIVMTQSPLSLPVTPGEPASISCRSSQSLVHSNRNTYLHWYQQKPGQAPRLLIYKVSNRFSGVPDRFSGSGSGTDFTLKISRVEAEDVGVYYCGQGTQVPYTFGQGTKLEIKRTVAAPSVFIFPPSDEQLKSGTASVVCLLNNFYPREAKVQWKVDNALQSGNSQESVTEQDSKDSTYSLSSTLTLSKADYEKHKVYACEVTHQGLSSPVTKSFNRGEC
notes: one-arm antibody
B4: CE115HA000 Y100aD one-arm antibody (antibody, human IgG1, kappa, L234A L235A, N297A, name in Kabat numbering)
heavy: QVQLVESGGGVVQPGRSLRLSCAASGFTFSNAWMHWVRQAPGKGLEWVAQIKAKSNNYATYYAESVKGRFTISRDDSKNSLYLQMNSLKTEDTAVYYCRYVHYGAYDGVDAWGQGTTVTVSSASTKGPSVFPLAPSSKSTSGGTAALGCLVKDYFPEPVTVSWNSGALTSGVHTFPAVLQSSGLYSLSSVVTVPSSSLGTQTYICNVNHKPSNTKVDKKVEPKSCDKTHTCPPCPAPEAAGGPSVFLFPPKPKDTLMISRTPEVTCVVVDVSHEDPEVKFNWYVDGVEVHNAKTKPREEQYASTYRVVSVLTVLHQDWLNGKEYKCKVSNKALPAPIEKTISKAKGQPREPQVYTLPPSRCELTKNQVSLSCAVKGFYPSDIAVEWESNGQPENNYKTTPPVLDSDGSFFLVSKLTVDKSRWQQGNVFSCSVMHEALHNHYTQKSLSLSPDYKDDDDK
chain: EPKSSDKTHTCPPCPAPELLGGPSVFLFPPKPKDTLMISRTPEVTCVVVDVSHEDPEVKFNWYVDGVEVHNAKTKPREEQYNSTYRVVSVLTVLHQDWLNGKEYKCKVSNKALPAPIEKTISKAKGQPREPQVCTLPPSRDELTKNQVSLWCLVKGFYPSDIAVEWESNGQPENNYKTTPPVLDSDGSFFLYSKLTVDKSRWQQGNVFSCSVMHEALHNRYTQKSLSLSP
light: DIVMTQSPLSLPVTPGEPASISCRSSQSLVHSNRNTYLHWYQQKPGQAPRLLIYKVSNRFSGVPDRFSGSGSGTDFTLKISRVEAEDVGVYYCGQGTQVPYTFGQGTKLEIKRTVAAPSVFIFPPSDEQLKSGTASVVCLLNNFYPREAKVQWKVDNALQSGNSQESVTEQDSKDSTYSLSSTLTLSKADYEKHKVYACEVTHQGLSSPVTKSFNRGEC
notes: one-arm antibody
B5: CE115HA000 Y100aK one-arm antibody (antibody, human IgG1, kappa, L234A L235A, N297A, name in Kabat numbering)
heavy: QVQLVESGGGVVQPGRSLRLSCAASGFTFSNAWMHWVRQAPGKGLEWVAQIKAKSNNYATYYAESVKGRFTISRDDSKNSLYLQMNSLKTEDTAVYYCRYVHYGAYKGVDAWGQGTTVTVSSASTKGPSVFPLAPSSKSTSGGTAALGCLVKDYFPEPVTVSWNSGALTSGVHTFPAVLQSSGLYSLSSVVTVPSSSLGTQTYICNVNHKPSNTKVDKKVEPKSCDKTHTCPPCPAPEAAGGPSVFLFPPKPKDTLMISRTPEVTCVVVDVSHEDPEVKFNWYVDGVEVHNAKTKPREEQYASTYRVVSVLTVLHQDWLNGKEYKCKVSNKALPAPIEKTISKAKGQPREPQVYTLPPSRCELTKNQVSLSCAVKGFYPSDIAVEWESNGQPENNYKTTPPVLDSDGSFFLVSKLTVDKSRWQQGNVFSCSVMHEALHNHYTQKSLSLSPDYKDDDDK
chain: EPKSSDKTHTCPPCPAPELLGGPSVFLFPPKPKDTLMISRTPEVTCVVVDVSHEDPEVKFNWYVDGVEVHNAKTKPREEQYNSTYRVVSVLTVLHQDWLNGKEYKCKVSNKALPAPIEKTISKAKGQPREPQVCTLPPSRDELTKNQVSLWCLVKGFYPSDIAVEWESNGQPENNYKTTPPVLDSDGSFFLYSKLTVDKSRWQQGNVFSCSVMHEALHNRYTQKSLSLSP
light: DIVMTQSPLSLPVTPGEPASISCRSSQSLVHSNRNTYLHWYQQKPGQAPRLLIYKVSNRFSGVPDRFSGSGSGTDFTLKISRVEAEDVGVYYCGQGTQVPYTFGQGTKLEIKRTVAAPSVFIFPPSDEQLKSGTASVVCLLNNFYPREAKVQWKVDNALQSGNSQESVTEQDSKDSTYSLSSTLTLSKADYEKHKVYACEVTHQGLSSPVTKSFNRGEC
notes: one-arm antibody
B6: CE115HA000 Y100aF one-arm antibody (antibody, human IgG1, kappa, L234A L235A, N297A, name in Kabat numbering)
heavy: QVQLVESGGGVVQPGRSLRLSCAASGFTFSNAWMHWVRQAPGKGLEWVAQIKAKSNNYATYYAESVKGRFTISRDDSKNSLYLQMNSLKTEDTAVYYCRYVHYGAYFGVDAWGQGTTVTVSSASTKGPSVFPLAPSSKSTSGGTAALGCLVKDYFPEPVTVSWNSGALTSGVHTFPAVLQSSGLYSLSSVVTVPSSSLGTQTYICNVNHKPSNTKVDKKVEPKSCDKTHTCPPCPAPEAAGGPSVFLFPPKPKDTLMISRTPEVTCVVVDVSHEDPEVKFNWYVDGVEVHNAKTKPREEQYASTYRVVSVLTVLHQDWLNGKEYKCKVSNKALPAPIEKTISKAKGQPREPQVYTLPPSRCELTKNQVSLSCAVKGFYPSDIAVEWESNGQPENNYKTTPPVLDSDGSFFLVSKLTVDKSRWQQGNVFSCSVMHEALHNHYTQKSLSLSPDYKDDDDK
chain: EPKSSDKTHTCPPCPAPELLGGPSVFLFPPKPKDTLMISRTPEVTCVVVDVSHEDPEVKFNWYVDGVEVHNAKTKPREEQYNSTYRVVSVLTVLHQDWLNGKEYKCKVSNKALPAPIEKTISKAKGQPREPQVCTLPPSRDELTKNQVSLWCLVKGFYPSDIAVEWESNGQPENNYKTTPPVLDSDGSFFLYSKLTVDKSRWQQGNVFSCSVMHEALHNRYTQKSLSLSP
light: DIVMTQSPLSLPVTPGEPASISCRSSQSLVHSNRNTYLHWYQQKPGQAPRLLIYKVSNRFSGVPDRFSGSGSGTDFTLKISRVEAEDVGVYYCGQGTQVPYTFGQGTKLEIKRTVAAPSVFIFPPSDEQLKSGTASVVCLLNNFYPREAKVQWKVDNALQSGNSQESVTEQDSKDSTYSLSSTLTLSKADYEKHKVYACEVTHQGLSSPVTKSFNRGEC
notes: one-arm antibody

molecular target: T1, CD3 epsilon homodimer protein (UniProt P07766 23-126); assay: SPR (Biacore T200), CD3 epsilon homodimer on CM4 chip, one-arm antibody as analyte; ratio to unaltered CE115HA000;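 further: surface plasmon resonance run at 25 °C with HBS-EP+ as running buffer, CD3 epsilon homodimer attached by amine coupling, antibody passed over as analyte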
T1 construct: Construct of the homodimer protein is not described; also called CD3 (CD3 epsilon)
T1 sequence (P07766 23-126): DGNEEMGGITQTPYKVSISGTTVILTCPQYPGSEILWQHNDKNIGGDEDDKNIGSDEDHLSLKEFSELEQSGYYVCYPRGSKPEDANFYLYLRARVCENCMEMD

In order of rising “KD ratio (KD value of CE115HA000/KD value of the altered form)” value:
1. B3  0.57
2. B1  0.66
3. B5  0.79
4. B6  0.98
5. B2  1.01
6. B4  1.2
